Our source for the fold reduction of binding with VbP (10 uM, in the lysate) against DMSO values is PMC6862324.

For the experiment, the target named is T1, FLAG-tagged human NLRP1 (human), Q9C000.
T1 chain: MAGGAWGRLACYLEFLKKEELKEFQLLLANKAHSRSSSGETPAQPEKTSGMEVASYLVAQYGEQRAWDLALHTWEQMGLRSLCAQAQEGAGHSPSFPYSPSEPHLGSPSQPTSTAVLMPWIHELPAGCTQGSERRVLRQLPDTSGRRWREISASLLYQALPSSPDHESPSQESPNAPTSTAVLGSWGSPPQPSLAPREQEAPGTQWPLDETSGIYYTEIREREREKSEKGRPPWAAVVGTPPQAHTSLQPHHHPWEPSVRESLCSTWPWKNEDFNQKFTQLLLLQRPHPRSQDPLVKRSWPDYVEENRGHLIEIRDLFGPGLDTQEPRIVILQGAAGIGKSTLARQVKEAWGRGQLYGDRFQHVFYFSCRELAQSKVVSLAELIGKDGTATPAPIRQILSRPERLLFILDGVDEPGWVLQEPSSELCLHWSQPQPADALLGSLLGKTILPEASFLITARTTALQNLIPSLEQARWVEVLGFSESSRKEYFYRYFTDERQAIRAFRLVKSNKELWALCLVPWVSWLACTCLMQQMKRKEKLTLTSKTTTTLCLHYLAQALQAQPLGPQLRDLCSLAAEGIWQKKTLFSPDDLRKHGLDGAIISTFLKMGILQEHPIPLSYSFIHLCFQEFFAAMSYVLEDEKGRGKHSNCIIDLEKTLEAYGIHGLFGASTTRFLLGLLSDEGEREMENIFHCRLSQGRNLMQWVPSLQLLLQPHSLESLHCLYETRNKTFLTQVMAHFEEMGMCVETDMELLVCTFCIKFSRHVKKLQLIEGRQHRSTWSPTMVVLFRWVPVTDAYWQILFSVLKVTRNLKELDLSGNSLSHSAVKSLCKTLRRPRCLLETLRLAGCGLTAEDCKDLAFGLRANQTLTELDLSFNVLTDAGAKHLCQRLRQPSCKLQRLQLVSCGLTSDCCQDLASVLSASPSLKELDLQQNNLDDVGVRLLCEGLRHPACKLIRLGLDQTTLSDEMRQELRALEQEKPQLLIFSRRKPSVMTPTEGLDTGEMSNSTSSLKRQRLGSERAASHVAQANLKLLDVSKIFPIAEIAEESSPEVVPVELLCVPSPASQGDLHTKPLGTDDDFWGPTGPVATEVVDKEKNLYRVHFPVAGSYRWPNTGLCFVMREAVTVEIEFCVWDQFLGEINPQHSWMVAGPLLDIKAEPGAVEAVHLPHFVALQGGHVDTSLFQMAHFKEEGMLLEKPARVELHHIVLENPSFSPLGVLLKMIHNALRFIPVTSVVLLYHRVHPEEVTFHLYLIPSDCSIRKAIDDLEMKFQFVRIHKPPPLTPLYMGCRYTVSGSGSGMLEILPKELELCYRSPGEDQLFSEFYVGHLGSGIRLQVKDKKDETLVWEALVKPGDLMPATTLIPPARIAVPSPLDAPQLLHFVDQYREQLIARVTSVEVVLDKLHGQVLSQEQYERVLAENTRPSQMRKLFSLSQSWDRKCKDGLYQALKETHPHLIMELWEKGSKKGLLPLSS
Description: co-IP. Particulars: remark: other sources report otherwise.

B1: endogenous DPP9, Q86TI2 1-863 (enzyme)
chain: MATTGTPTADRGDAAATDDPAARFQVQKHSWDGLRSIIHGSRKYSGLIVNKAPHDFQFVQKTDESGPHSHRLYYLGMPYGSRENSLLYSEIPKKVRKEALLLLSWKQMLDHFQATPHHGVYSREEELLRERKRLGVFGITSYDFHSESGLFLFQASNSLFHCRDGGKNGFMVSPMKPLEIKTQCSGPRMDPKICPADPAFFSFINNSDLWVANIETGEERRLTFCHQGLSNVLDDPKSAGVATFVIQEEFDRFTGYWWCPTASWEGSEGLKTLRILYEEVDESEVEVIHVPSPALEERKTDSYRYPRTGSKNPKIALKLAEFQTDSQGKIVSTQEKELVQPFSSLFPKVEYIARAGWTRDGKYAWAMFLDRPQQWLQLVLLPPALFIPSTENEEQRLASARAVPRNVQPYVVYEEVTNVWINVHDIFYPFPQSEGEDELCFLRANECKTGFCHLYKVTAVLKSQGYDWSEPFSPGEDEFKCPIKEEIALTSGEWEVLARHGSKIWVNEETKLVYFQGTKDTPLEHHLYVVSYEAAGEIVRLTTPGFSHSCSMSQNFDMFVSHYSSVSTPPCVHVYKLSGPDDDPLHKQPRFWASMMEAASCPPDYVPPEIFHFHTRSDVRLYGMIYKPHALQPGKKHPTVLFVYGGPQVQLVNNSFKGIKYLRLNTLASLGYAVVVIDGRGSCQRGLRFEGALKNQMGQVEIEDQVEGLQFVAEKYGFIDLSRVAIHGWSYGGFLSLMGLIHKPQVFKVAIAGAPVTVWMAYDTGYTERYMDVPENNQHGYEAGSVALHVEKLPNEPNRLLILHGFLDENVHFFHTNFLVSQLIRAGKPYQLQIYPNERHSIRCPESGEHYEVTLLHFLQEYL
B1 showed a fold reduction of binding with VbP (10 uM, in the lysate) against DMSO of 2 fold.
